# Test results from the supplement of paper PMC7877785.
# ± gives the uncertainty stated by the source.
# Test: self-splicing fitness, log relative to wild type (ln ratio); higher = more splicing; Tetrahymena group I intron in knt gene, E. coli kanamycin selection, DiMSum; sequences stand for … in CUCUCU…GGAGGGAAAAGUUAUCAGGCAUGCACCUGGUAGCUAGUCUUUAAACCAAUAGAUUGCAUCGGUUUAAAAGGCAAGACCGUCAAAUUGCGGGAAAGGGGUCAACAGCCGUUCAGUACCAAGUCUCAGGGGAAACUUUGAGAUGGCCUUGCAAAGGGUAUGGUAAUAAGCUGACGGACAUGGUCCUAACCACGCAGCCAAGUCCUAAGUCAACAGAUCUUCUGUUGAUAUGGAUGCAGUUCACAGACUAAAUGUCGGUCGGGGAAGAUGUAUUCUUCUCAUAAGAUAUAGUCGGACCUCUCCUUAAUGGGAGCUAGCGGAUGAAGUGAUGCAACACUGGAGCCGCUGGGAACUAAUUUGUAUGCGAAAGUAUAUUGAUUAGUUUUGGAGUACUCGUGGUCG
# In short: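 The eight P1ex-region nucleotides of an intron in the knt kanamycin-resistance gene on pET-22b(+) were all randomised and the library put into E. coli BL21(DE3). Six replicate transformations were grown overnight at 37°C or 30°C on LB agar with or without 25 μg/mL kanamycin, together with 100 μg/mL carbenicillin, 50 μM IPTG and 0.2% rhamnose. Colonies were pooled and amplicon-sequenced on an Illumina HiSeq 2500. Fitness from DiMSum is the error-weighted combination of wild-type-normalised replicate fold changes, kanamycin over none.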
Sequence,self-splicing fitness (ln) (30 °C),self-splicing fitness (ln) (37 °C)
UUUUAGCAAUAUUACGCCGU,-2.64 ± 0.32,-2.8 ± 0.44
UCCAAGCAAUAUUACGAUUC,-2.6 ± 0.37,-2.18 ± 0.34
UCCGAGCAAUAUUACGCUAU,-2.09 ± 0.24,-3.2 ± 0.33
CGAAAGCAAUAUUACGAUGA,-0.9 ± 0.08,-0.508 ± 0.088
CUCGAGCAAUAUUACGCGCC,-2.53 ± 0.19,-2.12 ± 0.37
ACAAAGCAAUAUUACGACUC,-0.72 ± 0.11,-0.304 ± 0.12
ACGAAGCAAUAUUACGGCCU,0.00118 ± 0.097,0.0498 ± 0.13
CGUCAGCAAUAUUACGUCCC,-3.43 ± 0.31,-0.834 ± 0.22
UUAAAGCAAUAUUACGAUUU,-0.89 ± 0.063,0.0458 ± 0.099
UACGAGCAAUAUUACGAGAA,-2.33 ± 0.35,
GCAUAGCAAUAUUACGUUUC,-4.77 ± 0.26,-3.01 ± 0.15
UCCCAGCAAUAUUACGUUGA,-1.26 ± 0.066,0.408 ± 0.075
UCUCAGCAAUAUUACGCAGC,-3.54 ± 0.24,-2.32 ± 0.21
AAGCAGCAAUAUUACGUACU,0.254 ± 0.1,0.172 ± 0.11
CGACAGCAAUAUUACGAUAA,-3.74 ± 0.28,-1.27 ± 0.14
CGAUAGCAAUAUUACGGAUG,-0.777 ± 0.058,0.18 ± 0.07
AACGAGCAAUAUUACGUUAG,-3.71 ± 0.33,-3.11 ± 0.3
UAACAGCAAUAUUACGCAGG,-2.5 ± 0.09,-0.402 ± 0.08
ACUAAGCAAUAUUACGGGAA,-2.17 ± 0.11,-1.75 ± 0.15
CUGCAGCAAUAUUACGGGUA,-3.32 ± 0.4,-0.797 ± 0.14
AGUAAGCAAUAUUACGAAGC,-3.12 ± 0.27,-3.5 ± 0.37
GGACAGCAAUAUUACGUGGC,-3.02 ± 0.26,-0.384 ± 0.16
UAUGAGCAAUAUUACGUAGU,-3.67 ± 0.28,-1.99 ± 0.21
UAAGAGCAAUAUUACGUGAA,-1.72 ± 0.17,-1.74 ± 0.29
UUCUAGCAAUAUUACGCGCA,-0.451 ± 0.088,-0.191 ± 0.097
AUUCAGCAAUAUUACGCUAU,-1.45 ± 0.079,-0.637 ± 0.1

Sequence,self-splicing fitness (ln) (30 °C),self-splicing fitness (ln) (37 °C)
UGGUAGCAAUAUUACGAAUA,-0.911 ± 0.17,-1.17 ± 0.16
CAUGAGCAAUAUUACGAUGA,-3.5 ± 0.2,-2.48 ± 0.15
CUGCAGCAAUAUUACGUCGC,-4.61 ± 0.46,-2.83 ± 0.32
AGGGAGCAAUAUUACGGGUU,-3.84 ± 0.25,-3.17 ± 0.35
UGAGAGCAAUAUUACGAAUU,-3.84 ± 0.16,-2.79 ± 0.17
CUGCAGCAAUAUUACGUAUG,-1.27 ± 0.091,-1.19 ± 0.12
UGUUAGCAAUAUUACGCGCU,-1.36 ± 0.13,-0.409 ± 0.12
CGCCAGCAAUAUUACGUACU,-2.58 ± 0.16,-2.02 ± 0.2
AAGGAGCAAUAUUACGAGCC,-0.997 ± 0.17,
CGGCAGCAAUAUUACGCUCU,-2.11 ± 0.14,-0.612 ± 0.16
CGAGAGCAAUAUUACGCAUG,-2.98 ± 0.12,-2.02 ± 0.12
GAAAAGCAAUAUUACGAACA,-0.893 ± 0.1,0.0828 ± 0.12
GUACAGCAAUAUUACGUGAC,-2.8 ± 0.18,-0.577 ± 0.16
UUUCAGCAAUAUUACGAAAG,-3.23 ± 0.24,-1.87 ± 0.22
CCAUAGCAAUAUUACGUAGA,-3.86 ± 0.17,-2.53 ± 0.16
GAAUAGCAAUAUUACGGGUG,-3.74 ± 0.15,-1.03 ± 0.095
AUCUAGCAAUAUUACGUUAU,-1.79 ± 0.11,-1.46 ± 0.11
AUGUAGCAAUAUUACGAGGU,-2.28 ± 0.19,-1.84 ± 0.23
UUGCAGCAAUAUUACGCCUU,-0.0132 ± 0.081,0.15 ± 0.11
GAUGAGCAAUAUUACGAGAU,,-3.21 ± 0.47
CGUCAGCAAUAUUACGAGAU,-3.93 ± 0.21,-2.65 ± 0.17
UACUAGCAAUAUUACGCCAA,0.284 ± 0.44,-1.02 ± 0.25
AUUCAGCAAUAUUACGCCAU,-1.46 ± 0.1,-1.09 ± 0.1
AUGCAGCAAUAUUACGGGAU,-2.25 ± 0.088,-1.06 ± 0.097
UCCCAGCAAUAUUACGGAGC,-1.44 ± 0.098,-1.44 ± 0.18
CUGGAGCAAUAUUACGGCUG,-1.48 ± 0.15,-0.00856 ± 0.18

Sequence,self-splicing fitness (ln) (30 °C),self-splicing fitness (ln) (37 °C)
AUAUAGCAAUAUUACGGGAC,-2.51 ± 0.48,-1.82 ± 0.48
GCCAAGCAAUAUUACGCCAA,-2.4 ± 0.23,-1.19 ± 0.15
UGGGAGCAAUAUUACGGCGA,-1.73 ± 0.36,-1.23 ± 0.28
UAGUAGCAAUAUUACGAUAG,-1.95 ± 0.35,
CCAGAGCAAUAUUACGGAGG,-2.49 ± 0.18,-1.87 ± 0.24
CCUCAGCAAUAUUACGGGUC,-2.5 ± 0.27,-2.56 ± 0.36
CCGUAGCAAUAUUACGCUAG,-3.02 ± 0.28,-2.14 ± 0.25
CCCGAGCAAUAUUACGACCU,-2.45 ± 0.31,-2.19 ± 0.32
CAUCAGCAAUAUUACGAGUG,-2.26 ± 0.11,-0.515 ± 0.1
AUCUAGCAAUAUUACGGACU,0.0775 ± 0.11,0.443 ± 0.12
GCCUAGCAAUAUUACGAGAC,-1.85 ± 0.16,0.662 ± 0.12
UGAGAGCAAUAUUACGAAUG,-2.97 ± 0.36,-1.09 ± 0.46
GUAUAGCAAUAUUACGCUUU,-3.51 ± 0.24,-2.28 ± 0.17
GUUUAGCAAUAUUACGUUUU,-2.72 ± 0.14,-1.65 ± 0.18
UGGAAGCAAUAUUACGCACU,-0.488 ± 0.12,-0.124 ± 0.15
CUAAAGCAAUAUUACGAGUG,0.178 ± 0.047,0.456 ± 0.077
GCCCAGCAAUAUUACGCGAC,-2.9 ± 0.17,-1.55 ± 0.14
GUAGAGCAAUAUUACGUCGA,-3.08 ± 0.17,-0.919 ± 0.2
UCAAAGCAAUAUUACGCUUC,-4.01 ± 0.23,-2.02 ± 0.23
UCUGAGCAAUAUUACGACAG,-1.02 ± 0.12,-1.04 ± 0.15
ACUAAGCAAUAUUACGCGCG,-0.732 ± 0.096,-0.0128 ± 0.13
UGUCAGCAAUAUUACGGUAC,-4.07 ± 0.46,-1.38 ± 0.17
AUGAAGCAAUAUUACGUUCG,0.356 ± 0.086,0.464 ± 0.12
CGAAAGCAAUAUUACGGAUA,-2.86 ± 0.18,-3 ± 0.19
UCCUAGCAAUAUUACGUGUA,-2.28 ± 0.18,-1.09 ± 0.12
